Measured values taken from the supplement of paper PMC7877785.
± gives the uncertainty stated by the source.

Experiment: self-splicing fitness, log relative to wild type (ln ratio); higher = more splicing; Tetrahymena group I intron in knt gene, E. coli kanamycin selection, DiMSum; sequences stand for … in CUCUCU…GGAGGGAAAAGUUAUCAGGCAUGCACCUGGUAGCUAGUCUUUAAACCAAUAGAUUGCAUCGGUUUAAAAGGCAAGACCGUCAAAUUGCGGGAAAGGGGUCAACAGCCGUUCAGUACCAAGUCUCAGGGGAAACUUUGAGAUGGCCUUGCAAAGGGUAUGGUAAUAAGCUGACGGACAUGGUCCUAACCACGCAGCCAAGUCCUAAGUCAACAGAUCUUCUGUUGAUAUGGAUGCAGUUCACAGACUAAAUGUCGGUCGGGGAAGAUGUAUUCUUCUCAUAAGAUAUAGUCGGACCUCUCCUUAAUGGGAGCUAGCGGAUGAAGUGAUGCAACACUGGAGCCGCUGGGAACUAAUUUGUAUGCGAAAGUAUAUUGAUUAGUUUUGGAGUACUCGUGGUCG
Method in brief: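 Six replicate transformations of E. coli BL21(DE3) with a pET-22b(+) library were grown overnight at 37°C or 30°C. The library randomised all eight P1ex-region intron nucleotides, the intron lying in the knt kanamycin-resistance gene, and plates were LB agar with or without 25 μg/mL kanamycin plus 100 μg/mL carbenicillin, 50 μM IPTG and 0.2% rhamnose. Pooled colonies were amplicon-sequenced on an Illumina HiSeq 2500, and fitness is the DiMSum error-weighted combination of wild-type-normalised replicate fold changes, kanamycin versus none.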

Row | Sequence | self-splicing fitness (ln) (30 °C) | self-splicing fitness (ln) (37 °C)
1 | CACGAGCAAUAUUACGCAGG | -3.49 ± 0.21 | -2.55 ± 0.2
2 | CACGAGCAAUAUUACGCCGA | -2.35 ± 0.39 | –
3 | CACGAGCAAUAUUACGCCUG | -3.26 ± 0.23 | -2.38 ± 0.17
4 | CACGAGCAAUAUUACGCUAA | -2.95 ± 0.34 | -2.75 ± 0.22
5 | CACGAGCAAUAUUACGCUUG | -3.27 ± 0.34 | -2.03 ± 0.47
6 | CACGAGCAAUAUUACGGAUC | – | -2.84 ± 0.3
7 | CACGAGCAAUAUUACGGCUU | -3.77 ± 0.24 | -3.16 ± 0.29
8 | CACGAGCAAUAUUACGGGAA | -2.95 ± 0.2 | -3.1 ± 0.29
9 | CACGAGCAAUAUUACGGUAG | -2.41 ± 0.12 | -2.18 ± 0.14
10 | CACGAGCAAUAUUACGGUCG | -1.72 ± 0.14 | -0.457 ± 0.14
11 | CACGAGCAAUAUUACGGUGG | -2.15 ± 0.11 | -2.33 ± 0.15
12 | CACGAGCAAUAUUACGGUUC | – | -1.98 ± 0.34
13 | CACGAGCAAUAUUACGUAGU | -3.22 ± 0.17 | -2.73 ± 0.26
14 | CACGAGCAAUAUUACGUAUG | -3.54 ± 0.14 | -2.79 ± 0.16
15 | CACGAGCAAUAUUACGUGAC | -2.72 ± 0.15 | -2.44 ± 0.15
16 | CACGAGCAAUAUUACGUGCG | -3.73 ± 0.19 | -2.09 ± 0.15
17 | CACGAGCAAUAUUACGUGUC | -3.87 ± 0.2 | -2.52 ± 0.14
18 | CACGAGCAAUAUUACGUGUG | -3.48 ± 0.13 | -3.21 ± 0.17
19 | CACGAGCAAUAUUACGUUUG | -3.57 ± 0.13 | -2.17 ± 0.13
20 | CACUAGCAAUAUUACGAAGU | -2.82 ± 0.21 | -3.06 ± 0.29
21 | CACUAGCAAUAUUACGAAUA | -3.16 ± 0.37 | -2.33 ± 0.18
22 | CACUAGCAAUAUUACGACCG | 0.413 ± 0.1 | 0.573 ± 0.12
23 | CACUAGCAAUAUUACGAGCU | -3.44 ± 0.18 | -2.75 ± 0.17
24 | CACUAGCAAUAUUACGAUGU | -4.05 ± 0.37 | -1.63 ± 0.19
25 | CACUAGCAAUAUUACGCCAA | -2.23 ± 0.16 | -2.89 ± 0.24

Row | Sequence | self-splicing fitness (ln) (30 °C) | self-splicing fitness (ln) (37 °C)
26 | CACUAGCAAUAUUACGCUCC | – | -1.46 ± 0.2
27 | CACUAGCAAUAUUACGGAAC | – | -1.93 ± 0.22
28 | CACUAGCAAUAUUACGGAGC | -4.52 ± 0.28 | -2.8 ± 0.15
29 | CACUAGCAAUAUUACGGAGG | -2.39 ± 0.1 | -0.627 ± 0.1
30 | CACUAGCAAUAUUACGGCCU | -2.77 ± 0.2 | -1.94 ± 0.18
31 | CACUAGCAAUAUUACGGGUA | -0.856 ± 0.057 | -0.188 ± 0.064
32 | CACUAGCAAUAUUACGGUUA | -1.99 ± 0.12 | -0.466 ± 0.1
33 | CACUAGCAAUAUUACGUCGG | -1.25 ± 0.082 | 0.0907 ± 0.1
34 | CACUAGCAAUAUUACGUGGU | -3.41 ± 0.15 | -2.88 ± 0.17
35 | CACUAGCAAUAUUACGUUAU | -3.42 ± 0.22 | -3.52 ± 0.23
36 | CAGAAGCAAUAUUACGAGAU | -3.23 ± 0.17 | -2.44 ± 0.23
37 | CAGAAGCAAUAUUACGAGGG | -2.99 ± 0.23 | -1.18 ± 0.31
38 | CAGAAGCAAUAUUACGAUAC | – | -1.81 ± 0.2
39 | CAGAAGCAAUAUUACGAUGU | -3.37 ± 0.23 | -1.97 ± 0.2
40 | CAGAAGCAAUAUUACGCACG | -0.596 ± 0.072 | -0.261 ± 0.08
41 | CAGAAGCAAUAUUACGCACU | -2.13 ± 0.14 | -1.36 ± 0.14
42 | CAGAAGCAAUAUUACGCAUG | -3.89 ± 0.21 | -2.44 ± 0.17
43 | CAGAAGCAAUAUUACGCGCA | -1.55 ± 0.17 | -0.337 ± 0.12
44 | CAGAAGCAAUAUUACGCUCA | -1.61 ± 0.11 | 0.0994 ± 0.11
45 | CAGAAGCAAUAUUACGCUCG | -1.31 ± 0.11 | -0.994 ± 0.15
46 | CAGAAGCAAUAUUACGGAAG | -1.65 ± 0.077 | -1.35 ± 0.095
47 | CAGAAGCAAUAUUACGGAGG | -1.91 ± 0.099 | -1.2 ± 0.1
48 | CAGAAGCAAUAUUACGGGAA | -3.21 ± 0.23 | -1.37 ± 0.25
49 | CAGAAGCAAUAUUACGGGCG | -0.315 ± 0.089 | -0.0188 ± 0.11
50 | CAGAAGCAAUAUUACGGGUA | -2.8 ± 0.16 | -2.25 ± 0.13

Row | Sequence | self-splicing fitness (ln) (30 °C) | self-splicing fitness (ln) (37 °C)
51 | CAGAAGCAAUAUUACGUAGU | -4.18 ± 0.24 | -1.97 ± 0.17
52 | CAGAAGCAAUAUUACGUCAU | – | -2.9 ± 0.25
53 | CAGAAGCAAUAUUACGUCGU | -4.88 ± 0.36 | -1.3 ± 0.14
54 | CAGAAGCAAUAUUACGUGCC | -4.04 ± 0.28 | -2.74 ± 0.3
55 | CAGAAGCAAUAUUACGUGUC | -3.9 ± 0.25 | -4 ± 0.27
56 | CAGCAGCAAUAUUACGAAGC | -4.28 ± 0.31 | –
57 | CAGCAGCAAUAUUACGACAU | -3.505 ± 0.021 | -1.82 ± 0.034
58 | CAGCAGCAAUAUUACGAUAC | -3.52 ± 0.33 | -3.45 ± 0.4
59 | CAGCAGCAAUAUUACGCAAG | -1.53 ± 0.092 | -0.332 ± 0.11
60 | CAGCAGCAAUAUUACGCAAU | -3.18 ± 0.24 | -1.29 ± 0.15
61 | CAGCAGCAAUAUUACGCAGC | -4.33 ± 0.32 | -2.3 ± 0.28
62 | CAGCAGCAAUAUUACGCCGA | -1.81 ± 0.12 | -0.864 ± 0.091
63 | CAGCAGCAAUAUUACGCGCU | -3.39 ± 0.21 | -2.45 ± 0.16
64 | CAGCAGCAAUAUUACGCGGG | -2.78 ± 0.17 | -2.31 ± 0.2
65 | CAGCAGCAAUAUUACGGACC | – | -1.84 ± 0.34
66 | CAGCAGCAAUAUUACGGCAA | -1.35 ± 0.1 | -1.45 ± 0.097
67 | CAGCAGCAAUAUUACGGCGC | -2.93 ± 0.35 | -1.51 ± 0.2
68 | CAGCAGCAAUAUUACGGCUU | -0.00706 ± 0.07 | 0.453 ± 0.088
69 | CAGCAGCAAUAUUACGGGAA | -3.17 ± 0.33 | -1.58 ± 0.16
70 | CAGCAGCAAUAUUACGGUGC | -2.99 ± 0.17 | -2.1 ± 0.28
71 | CAGCAGCAAUAUUACGUAAU | -2.34 ± 0.16 | -1.91 ± 0.15
72 | CAGCAGCAAUAUUACGUACA | -2.34 ± 0.15 | -1.97 ± 0.16
73 | CAGCAGCAAUAUUACGUCGU | -3.42 ± 0.18 | -0.9 ± 0.09
74 | CAGCAGCAAUAUUACGUGGC | -3.81 ± 0.25 | -1.67 ± 0.23
75 | CAGCAGCAAUAUUACGUUAA | -3.01 ± 0.11 | -1.66 ± 0.1

Row | Sequence | self-splicing fitness (ln) (30 °C) | self-splicing fitness (ln) (37 °C)
76 | CAGCAGCAAUAUUACGUUAC | – | -2.34 ± 0.27
77 | CAGCAGCAAUAUUACGUUAU | -3.77 ± 0.19 | -2.93 ± 0.15
78 | CAGCAGCAAUAUUACGUUGU | -2.88 ± 0.1 | -1.52 ± 0.13
79 | CAGGAGCAAUAUUACGACUA | 0.224 ± 0.31 | -0.98 ± 0.34
80 | CAGGAGCAAUAUUACGAUUA | -3.38 ± 0.31 | -2.37 ± 0.3
81 | CAGGAGCAAUAUUACGCAGC | -2.14 ± 0.18 | -2.55 ± 0.33
82 | CAGGAGCAAUAUUACGCUUG | -3.59 ± 0.21 | -2.48 ± 0.3
83 | CAGGAGCAAUAUUACGGCAG | -1.41 ± 0.083 | -1.27 ± 0.09
84 | CAGGAGCAAUAUUACGGCUU | -3.93 ± 0.23 | -2.15 ± 0.21
85 | CAGGAGCAAUAUUACGGGUC | -2.84 ± 0.19 | -2.92 ± 0.21
86 | CAGGAGCAAUAUUACGGUAU | -3.42 ± 0.15 | -2.86 ± 0.16
87 | CAGGAGCAAUAUUACGUACC | -2.36 ± 0.45 | –
88 | CAGGAGCAAUAUUACGUCAC | – | -1.92 ± 0.44
89 | CAGGAGCAAUAUUACGUCCA | -2.02 ± 0.16 | -1.08 ± 0.24
90 | CAGGAGCAAUAUUACGUGAA | -3.52 ± 0.38 | -3.2 ± 0.43
91 | CAGGAGCAAUAUUACGUGAU | -4.53 ± 0.46 | -1.95 ± 0.23
92 | CAGGAGCAAUAUUACGUGCA | -3.17 ± 0.21 | -2.6 ± 0.34
93 | CAGUAGCAAUAUUACGAAAU | -2.86 ± 0.15 | -2.54 ± 0.21
94 | CAGUAGCAAUAUUACGACCG | 0.558 ± 0.16 | -0.0835 ± 0.2
95 | CAGUAGCAAUAUUACGACGA | -1.39 ± 0.13 | -0.446 ± 0.13
96 | CAGUAGCAAUAUUACGAGAU | -4.27 ± 0.46 | -1.9 ± 0.27
97 | CAGUAGCAAUAUUACGAUUC | -3.11 ± 0.22 | -2.27 ± 0.26
98 | CAGUAGCAAUAUUACGCACC | -2.03 ± 0.26 | -1.61 ± 0.43
99 | CAGUAGCAAUAUUACGCAGU | -3.52 ± 0.34 | -2.33 ± 0.22
